Measured values: patent publication US20140105903A1 (Harvard, published 2014)

Key:
[1] = target: ANG binding sites on ANG receptor expressing LNCaP cells; experiment: radio receptor assay, 125I-ANG on LNCaP cells at 4 C, Scatchard analysis
[2] = target: ANG binding sites on ANG receptor expressing LNCaP cells; experiment: radio receptor assay, 125I-ANG on LNCaP cells at 4 C, Scatchard analysis; second site
[3] = target: T1, Angiogenin (human ANG) (human, UniProt P03950 25-147, iodine-125 label in the radio receptor assay; coupled to Sepharose in the affinity chromatography); experiment: method not named at this place; Example 4 names ELISA and equilibrium dialysis
T1 construct: also called free ANG
T1 sequence (P03950 25-147 limits assumed): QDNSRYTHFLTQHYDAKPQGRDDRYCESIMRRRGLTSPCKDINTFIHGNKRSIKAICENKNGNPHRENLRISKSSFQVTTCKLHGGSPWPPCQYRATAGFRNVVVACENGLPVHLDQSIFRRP

Molecule	Kd [1]	Kd [2]	Kd [3]
Angiogenin (human ANG) (from UniProt P03950 25-147) (ligand)	0.45 nM	170 nM	–
GTSSEYDSILVEINKRVK (Chemically synthesized peptide from the region of Plexin B2 between residues 316 and 449) [Plexin B2 peptide GTSSEYDSILVEINKRVK (SEQ ID NO: 1)]	–	–	200 nM
